This is an account of results in patent US20260125454A1 (SHANGHAI JUNSHI BIOSCIENCES, published 2026).

Numbering of substitutions follows the chain as printed.

In the experiment the target is T1, Biotin-huCGRPaSA (human, not fully specified; biotin (position not given)).
T1 construct: exact construct ('aSA') not explained; also called Biotin CGRPaSA; full-length (1-37) CGRP
T1 peptide: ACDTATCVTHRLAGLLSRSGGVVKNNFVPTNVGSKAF
Kind of experiment: ELISA, supernatant; relative to chimeric C245. In a few lines: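 Antibodies, including reference chimeric C245, titrated 2.5-fold from 1000 ng/mL and incubated 60 min at 37°C on wells coated with 1.0 μg/mL biotin-CGRPaSA and blocked with 2% BSA. Bound IgG detected with HRP anti-human Fc antibody and TMB, acid-stopped, absorbance 450/620 nm.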

B1: hu120 (antibody, V domains shown)
VH: QVQLVQSGAEVKKPGASVKVSCKASGYTFTDYNMHWVRQAPGQGLEWMGNIYPYNGGTVYNQKFNNRVTLTVDTSSSTAYMELRSLRSDDTAVYYCAREGLGGYWGQGTLVTVSS
VL: EIVLTQSPATLSLSPGERATLSCKASQNIDYDGYAYLNWYQQKPGQAPRVLIYSVFNLESGIPARFSGSGSGTDFTLTISSLEPEDFAVYYCQQSNEFPYTFGQGTKLEIK
notes: 2B8 HC1-2/1A2 LC2-3
Consider B1, for which the “Relative binding activity, %” value turned out to be 28%.

B2: hu212 (antibody, V domains shown)
VH: B1 VH with N50Y, G57H, N65R
VL: DIQLTQSPSFLSASVGDRVTITCKASQNIDYDGYAYLNWYQQKPGKAPKVLIYSVFNLESGVPSRFSGSGSGTEFTLTISSLQPEDFATYYCQQSNEFPYTFGQGTKLEIK
notes: 3H10 HC-2/1A2 LC2-4
Turning to B2, the “Relative binding activity, %” value is 38%.

B3: hu123 (antibody, V domains shown)
VH: B1 VH
VL: B1 VL with Y31F, L37M, Q42H, N96H, F98V
notes: 2B8 HC1-2/1F5 LC1-2
Consider B3, for which the “Relative binding activity, %” value amounted to 96%.

B4: hu172 (antibody, V domains shown)
VH: B1 VH with N50Y, Y52S, V59A, N65K, N66F, R84S, S85R, A92V
VL: B1 VL
notes: 3E5 HC-3/1A2 LC2-3
With B4, the “Relative binding activity, %” value was determined as 94%.

B5: hu133 (antibody, V domains shown)
VH: B1 VH with G56A, R84S, S85R
VL: B1 VL
notes: 2B8 HC1-3/1A2 LC2-3
Consider B5, for which the “Relative binding activity, %” value was determined as 81%.

B6: hu174 (antibody, V domains shown)
VH: B1 VH with N50Y, Y52S, V59A, N65K, N66F, R84S, S85R, A92V
VL: B1 VL with Y31F, L37M, N96H, F98V
notes: 3E5 HC-3/1F5 LC1-1
With B6, the “Relative binding activity, %” value is 84%.

B7: hu121 (antibody, V domains shown)
VH: B1 VH
VL: B2 VL
notes: 2B8 HC1-2/1A2 LC2-4
As to B7, the “Relative binding activity, %” value is 49%.

B8: hu159 (antibody, V domains shown)
VH: B1 VH with G44R, N50Y, Y52S, V59A, N65K, N66F, R84S, D89E
VL: B1 VL
notes: 3E5 HC-2/1A2 LC2-3
Consider B8, for which the “Relative binding activity, %” value is 26%.

B9: hu17 (antibody, V domains shown)
VH: B1 VH with G44R, N50Y, Y52F, G57V, T58A, Q62R, N65R, N66S, R84S, D89E
VL: B2 VL
notes: 1B2 HC-2/1A2 LC2-4
As to B9, the “Relative binding activity, %” value turned out to be 35%.

B10: hu173 (antibody, V domains shown)
VH: B1 VH with N50Y, Y52S, V59A, N65K, N66F, R84S, S85R, A92V
VL: B2 VL
notes: 3E5 HC-3/1A2 LC2-4
B10: the “Relative binding activity, %” value stood at 92%.

B11: hu117 (antibody, V domains shown)
VH: B1 VH with R84S, S85R
VL: B2 VL with F10S, D32G, A35S, L37M, E74D, F98A
notes: 2B8 HC1-1/3H10 LC2-2
For the molecule B11, the “Relative binding activity, %” value was found to be 36%.

B12: hu135 (antibody, V domains shown)
VH: B1 VH with G56A, R84S, S85R
VL: B1 VL with Y31F, L37M, N96H, F98V
notes: 2B8 HC1-3/1F5 LC1-1
In the case of B12, the “Relative binding activity, %” value turned out to be 98%.

B13: hu149 (antibody, V domains shown)
VH: B1 VH with A24T, G44R, N50Y, Y52S, V59A, N65K, N66F, R84S, D89E
VL: B1 VL with Y31F, L37M, Q42H, N96H, F98V
notes: 3E5 HC-1/1F5 LC1-2
As to B13, the “Relative binding activity, %” value was 91%.

B14: hu214 (antibody, V domains shown)
VH: B1 VH with N50Y, G57H, N65R
VL: B1 VL with Y31F, L37M, Q42H, N96H, F98V
notes: 3H10 HC-2/1F5 LC1-2
Consider B14, for which the “Relative binding activity, %” value came out at 57%.

B15: hu198 (antibody, V domains shown)
VH: B1 VH with N50Y, G57H, N65R, L70M, R98K
VL: B1 VL
notes: 3H10 HC-1/1A2 LC2-3
Consider B15, for which the “Relative binding activity, %” value amounted to 39%.

B16: hu160 (antibody, V domains shown)
VH: B1 VH with G44R, N50Y, Y52S, V59A, N65K, N66F, R84S, D89E
VL: B2 VL
notes: 3E5 HC-2/1A2 LC2-4
Regarding B16, the “Relative binding activity, %” value turned out to be 50%.

B17: hu56 (antibody, V domains shown)
VH: B1 VH with Y32F, N50Y, G57D, T58V, K63N, N65T
VL: B2 VL
notes: 1F5 HC-3/1A2 LC2-4
B17: the “Relative binding activity, %” value turned out to be 53%.

B18: hu65 (antibody, V domains shown)
VH: B1 VH with Y32F, N50Y, G57D, T58V, K63N, N65T
VL: B2 VL with F10S, D32G, A35S, L37M, E74D, F98A
notes: 1F5 HC-3/3H10 LC2-2
Regarding B18, the “Relative binding activity, %” value was 20%.

B19: hu4 (antibody, V domains shown)
VH: B1 VH with N50Y, Y52F, G57V, T58A, Q62R, N65R, N66S, V72I
VL: B2 VL
notes: 1B2 HC-1/1A2 LC2-4
On to B19, for which the “Relative binding activity, %” value turned out to be 58%.

B20: hu188 (antibody, V domains shown)
VH: B1 VH with A24T, G44R, N50Y, Y52S, G56A, V59A, N65K, N66F, R84S, D89E
VL: B1 VL with Y31F, L37M, Q42H, N96H, F98V
notes: 3E5 HC-4/1F5 LC1-2
Regarding B20, the “Relative binding activity, %” value amounted to 46%.

B21: hu200 (antibody, V domains shown)
VH: B1 VH with N50Y, G57H, N65R, L70M, R98K
VL: B1 VL with Y31F, L37M, N96H, F98V
notes: 3H10 HC-1/1F5 LC1-1
Regarding B21, the “Relative binding activity, %” value came to 43%.

B22: hu187 (antibody, V domains shown)
VH: B1 VH with A24T, G44R, N50Y, Y52S, G56A, V59A, N65K, N66F, R84S, D89E
VL: B1 VL with Y31F, L37M, N96H, F98V
notes: 3E5 HC-4/1F5 LC1-1
Regarding B22, the “Relative binding activity, %” value was 67%.

B23: hu148 (antibody, V domains shown)
VH: B1 VH with A24T, G44R, N50Y, Y52S, V59A, N65K, N66F, R84S, D89E
VL: B1 VL with Y31F, L37M, N96H, F98V
notes: 3E5 HC-1/1F5 LC1-1
For B23, the “Relative binding activity, %” value was found to be 100%.

B24: hu211 (antibody, V domains shown)
VH: B1 VH with N50Y, G57H, N65R
VL: B1 VL
notes: 3H10 HC-2/1A2 LC2-3
As to B24, the “Relative binding activity, %” value was 54%.

B25: hu175 (antibody, V domains shown)
VH: B1 VH with N50Y, Y52S, V59A, N65K, N66F, R84S, S85R, A92V
VL: B1 VL with Y31F, L37M, Q42H, N96H, F98V
notes: 3E5 HC-3/1F5 LC1-2
Consider B25, for which the “Relative binding activity, %” value amounted to 82%.

B26: hu147 (antibody, V domains shown)
VH: B1 VH with A24T, G44R, N50Y, Y52S, V59A, N65K, N66F, R84S, D89E
VL: B2 VL
notes: 3E5 HC-1/1A2 LC2-4
Consider B26, for which the “Relative binding activity, %” value was 111%.

B27: hu143 (antibody, V domains shown)
VH: B1 VH with G56A, R84S, S85R
VL: B2 VL with F10S, D32G, A35S, L37M, E74D, F98A
notes: 2B8 HC1-3/3H10 LC2-2
Consider B27, for which the “Relative binding activity, %” value was found to be 41%.

B28: hu13 (antibody, V domains shown)
VH: B1 VH with N50Y, Y52F, G57V, T58A, Q62R, N65R, N66S, V72I
VL: B2 VL with F10S, D32G, A35S, L37M, E74D, F98A
notes: 1B2 HC-1/3H10 LC2-2
On to B28, for which the “Relative binding activity, %” value worked out at 27%.

B29: hu161 (antibody, V domains shown)
VH: B1 VH with G44R, N50Y, Y52S, V59A, N65K, N66F, R84S, D89E
VL: B1 VL with Y31F, L37M, N96H, F98V
notes: 3E5 HC-2/1F5 LC1-1
For B29, the “Relative binding activity, %” value turned out to be 88%.

B30: hu134 (antibody, V domains shown)
VH: B1 VH with G56A, R84S, S85R
VL: B2 VL
notes: 2B8 HC1-3/1A2 LC2-4
In the case of B30, the “Relative binding activity, %” value stood at 86%.

B31: hu108 (antibody, V domains shown)
VH: B1 VH with R84S, S85R
VL: B2 VL
notes: 2B8 HC1-1/1A2 LC2-4
B31: the “Relative binding activity, %” value was determined as 70%.

B32: hu186 (antibody, V domains shown)
VH: B1 VH with A24T, G44R, N50Y, Y52S, G56A, V59A, N65K, N66F, R84S, D89E
VL: B2 VL
notes: 3E5 HC-4/1A2 LC2-4
As for B32, the “Relative binding activity, %” value was 53%.

B33: hu130 (antibody, V domains shown)
VH: B1 VH
VL: B2 VL with F10S, D32G, A35S, L37M, E74D, F98A
notes: 2B8 HC1-2/3H10 LC2-2
In the case of B33, the “Relative binding activity, %” value is 53%.

B34: hu43 (antibody, V domains shown)
VH: B1 VH with Y32F, G44R, N50Y, G57D, T58V, K63N, N65T, R84S, D89E
VL: B2 VL
notes: 1F5 HC-2/1A2 LC2-4
In the case of B34, the “Relative binding activity, %” value came out at 44%.

B35: hu95 (antibody, V domains shown)
VH: B1 VH with G44R, N50Y, I51V, T58S, V59A, N65K, N66S, R84S, D89E
VL: B2 VL
notes: 2A2 HC-1/1A2 LC2-4
B35: the “Relative binding activity, %” value was 43%.

B36: hu82 (antibody, V domains shown)
VH: QVQLVQSGAEVKKPGASVKVSCKASGYTFIDFNMHWVRQAPGQRLEWMGYIYPYNADVVYNQDFTNRVTLTVDTSSSTAYMELSSLRSEDTAVYYCAREGLGGYWGQGTLVTVSS
VL: B2 VL
notes: 1F5 HC-5/1A2 LC2-4
In the case of B36, the “Relative binding activity, %” value stood at 97%.

B37: hu122 (antibody, V domains shown)
VH: B1 VH
VL: B1 VL with Y31F, L37M, N96H, F98V
notes: 2B8 HC1-2/1F5 LC1-1
Consider B37, for which the “Relative binding activity, %” value was found to be 97%.

B38: hu162 (antibody, V domains shown)
VH: B1 VH with G44R, N50Y, Y52S, V59A, N65K, N66F, R84S, D89E
VL: B1 VL with Y31F, L37M, Q42H, N96H, F98V
notes: 3E5 HC-2/1F5 LC1-2
For B38, the “Relative binding activity, %” value came out at 81%.

B39: hu30 (antibody, V domains shown)
VH: B36 VH with A56G, D63N
VL: B2 VL
notes: 1F5 HC-1/1A2 LC2-4
For the molecule B39, the “Relative binding activity, %” value is 47%.

B40: hu201 (antibody, V domains shown)
VH: B1 VH with N50Y, G57H, N65R, L70M, R98K
VL: B1 VL with Y31F, L37M, Q42H, N96H, F98V
notes: 3H10 HC-1/1F5 LC1-2
In the case of B40, the “Relative binding activity, %” value was found to be 67%.
